Results on 1 molecule are retold here after patent US20190276499A1, “Protein VII Fragments and Methods of Use Thereof for the Treatment of Inflammatory Disorders” (priority 2016, published 2019).

The assay has as its target T1, HMGB1 (Homo sapiens, UniProt P09429).
T1 sequence (P09429 1-215): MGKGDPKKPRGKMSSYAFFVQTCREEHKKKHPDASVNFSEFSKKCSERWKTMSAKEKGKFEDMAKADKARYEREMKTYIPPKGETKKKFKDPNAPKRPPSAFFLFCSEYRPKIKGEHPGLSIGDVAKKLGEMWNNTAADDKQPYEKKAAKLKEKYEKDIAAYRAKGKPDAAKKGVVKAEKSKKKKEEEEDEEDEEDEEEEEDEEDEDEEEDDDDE
Kind of assay: Release assay of HMGB1 in THP-1 cells. The class given is cell-based. More on the design: endogenous in cells. The following applies: PMA-treated THP-1 cells, LPS plus nigericin. The procedure: THP-1 cells were seeded at a density of 2×10^5 cells per well in a 24-well plate, and stimulated into macrophage-like cells by addition of 10 ng/mL PMA for 48 hours. Cells were washed in PBS and transduced with recombinant adenovirus vectors expressing only GFP or protein VII-GFP such that >90% of cells were GFP positive. At 48 hours post transduction, cells were washed and 200 μL of serum free RPMI was added. To stimulate the inflammasome, LPS (Sigma-Aldrich L2880) with a final concentration of 0.5 μg/mL was added to wells and incubated for 2 hours, then nigericin (Sigma-Aldrich N7143) was added with a final concentration of 10 μM for 1 hour. Supernatants were collected and proteins precipitated overnight at 4° C. with a final concentration of 20% trichloroacetic acid (Sigma), washed with acetone, dried, and resuspended in 1×sample buffer with reducing agent (Invitrogen). For ELISA analysis, supernatants were harvested directly and HMGB1 content was detected by the manufacturer's instructions (Chondrex 6010). Cells were also harvested by the addition of 1×sample buffer with reducing agent (Invitrogen) and boiled. Supernatants and lysates were analyzed together by western blot.

B1: protein VII: mature protein VII of human adenovirus type 5 (SEQ ID NO:1), expressed in cells, mostly with C-terminal HA tag (protein)
chain: AKKRSDQHPVRVRGHYRAPWGAHKRGRTGRTTVDDAIDAVVEEARNYTPTPPPVSTVDAAIQTVVRGARRYAKMKRRRRRVARRHRRRPGTAAQRAAAALLNRARRTGRRAAMRAARRLAAGIVTVPPRSRRRAAAAAAAAISAMTQGRRGNVYWVRDSVSGLRVPVRTRPPRN
modifications: C-terminal HA tag; Human adenovirus 5
Consider B1, for which the HMGB1 in supernatants result is given as “reduced levels”.
